In article PMC8834691, “Deletion of Specific Conserved Motifs from the N-Terminal Domain of αB-Crystallin Results in the Activation of Chaperone Functions” (International Journal of Molecular Sciences, 2022):

Target: the molecule itself
Assay: SEC-MALS; 0.1 mg protein in 0.25 mL phosphate buffer, incubated at 37 °C for 1 h; TSK G5000PWXL column, 0.75 mL/min; subunits per oligomer = oligomeric mass divided by subunit mass

B1: αB-crystallin with residues 54–61 deleted (natural protein, human, UniProt P02511 1-175, looked up)
chain: MDIAIHHPWIRRPFFPFHSPSRLFDQFFGEHLLESDLFPTSTSLSPFYLRPPSDTGLSEMRLEKDRFSVNLDVKHFSPEELKVKVLGDVIEVHGKHEERQDEHGFISREFHRKYRIPADVDPLTITSSLSSDGVLTVNGPRKQVSGPERTIPITREEKPAVTAAPKK
notes: Polydisperse homo-oligomer (average molar mass 262 kDa by MALS); also called αBΔ54–61; αB∆54–61; source: E. coli BL21(DE3) pLysS, purified (45% ammonium sulfate precipitation, Superdex G200 gel filtration)
  binding result: binds

B2: wild-type αB-crystallin (natural protein, human, UniProt P02511 1-175, looked up)
chain: MDIAIHHPWIRRPFFPFHSPSRLFDQFFGEHLLESDLFPTSTSLSPFYLRPPSFLRAPSWFDTGLSEMRLEKDRFSVNLDVKHFSPEELKVKVLGDVIEVHGKHEERQDEHGFISREFHRKYRIPADVDPLTITSSLSSDGVLTVNGPRKQVSGPERTIPITREEKPAVTAAPKK
notes: αB-crystallin, human, wild type, recombinant; called full-length αB-WT; Polydisperse homo-oligomer (average molar mass 558 kDa by MALS); also called αB-WT; WT-αB; source: E. coli BL21(DE3) pLysS, purified (45% ammonium sulfate precipitation, Superdex G200 gel filtration)
  binding result: binds

B3: αB-crystallin with residues 21–28 and 54–61 deleted (natural protein, human, UniProt P02511 1-175, looked up)
chain: MDIAIHHPWIRRPFFPFHSPGEHLLESDLFPTSTSLSPFYLRPPSDTGLSEMRLEKDRFSVNLDVKHFSPEELKVKVLGDVIEVHGKHEERQDEHGFISREFHRKYRIPADVDPLTITSSLSSDGVLTVNGPRKQVSGPERTIPITREEKPAVTAAPKK
notes: Gene from GenScript in pET23a(+), without the C-terminal His-tag; the in-frame T7 tag was removed by PCR; Small homo-oligomer, average molar mass 85 kDa, on average close to four subunits; also called αBΔ21–28, Δ54–61; αB∆21–28, ∆54–61; source: E. coli BL21(DE3) pLysS, purified (45% ammonium sulfate precipitation, Superdex G200 gel filtration)
  stoichiometry N: ~4 subunits per oligomer
